Source: publication PMC6297349, “The ASCIZ-DYNLL1 axis promotes 53BP1-dependent non-homologous end joining and PARP inhibitor sensitivity” (Nature Communications, 2018)

Target: the molecule itself
Experiment: SEC; equal concentrations of TALON IMAC eluate fractionated over a Superdex S200 column (Supplementary Fig. 2a)

B1: Smt3-His6-tagged wild type 53BP1 fragment (amino acids 1131–1292) (domain or fragment, UniProt Q12888 1131-1292, looked up)
chain: GRSTNKENPSKALIERPSQNNIGIQTMECSLRVPETVSAATQTIKNVCEQGTSTVDQNFGKQDATVQTERGSGEKPVSAPGDDTESLHSQGEEEFDMPQPPHGHVLHRHMRTIREVRTLVTRVITDVYYVDGTEVERKVTEETEEPIVECQECETEVSPSQT
notes: No cleavage of the tags is described; the IMAC eluate went onto the Superdex S200 column; also called LC8-OD; source: E. coli BL21(DE3), pET-17b, purified (TALON IMAC column)
binding result: binds
